Data from the supplement of paper PMC5998384.

How the values were obtained:
HeLa Kyoto [1] = assay: solubility in G1/S (NP-40 vs SDS abundance) (log2 ratio); higher = more soluble; settings: cell cycle stage: G1/S
HeLa Kyoto [2] = assay: solubility change mitosis vs G1/S (difference of NP-40 vs SDS log2 ratios) (log2 ratio difference); higher = more soluble in mitosis
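Throughout, for solubility change mitosis vs G1/S (difference of NP-40 vs SDS log2 ratios): synchronized HeLa Kyoto cells (double thymidine block for G1/S, nocodazole release for mitosis), protein amounts in NP-40 versus SDS lysates quantified by mass spectrometry, three biological replicates.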
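Throughout, for solubility in G1/S (NP-40 vs SDS abundance): HeLa Kyoto cells arrested at G1/S by double thymidine block, proteins quantified by TMT10plex mass spectrometry in mild NP-40 versus SDS extracts, three biological replicates.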

STK25, sequence (chain, as listed by the source): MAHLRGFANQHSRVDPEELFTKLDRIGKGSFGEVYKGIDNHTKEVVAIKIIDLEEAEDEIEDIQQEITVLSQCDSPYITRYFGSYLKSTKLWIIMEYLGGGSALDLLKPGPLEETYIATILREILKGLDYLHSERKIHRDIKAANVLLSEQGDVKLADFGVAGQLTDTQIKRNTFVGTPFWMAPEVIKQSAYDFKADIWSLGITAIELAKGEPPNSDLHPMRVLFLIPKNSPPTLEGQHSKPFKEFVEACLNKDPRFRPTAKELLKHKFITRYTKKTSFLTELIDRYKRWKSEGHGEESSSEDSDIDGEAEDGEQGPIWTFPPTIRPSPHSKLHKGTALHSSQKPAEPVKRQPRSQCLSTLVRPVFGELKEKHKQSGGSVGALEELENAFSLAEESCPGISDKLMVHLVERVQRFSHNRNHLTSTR

Substance	solubility in G1/S (log2) (HeLa Kyoto [1])	solubility change mitosis (log2) (HeLa Kyoto [2])
MAKFGVHRILLLAISLTKCLESTKLLADLKKCGDLECEALINRVSAMRDYRGPDCRYLNFTKGEEISVYVKLAGEREDLWAGSKGKEFGYFPRDAVQIEEVFISEEIQMSTKESDFLCLLGVSYTFDNEDSELNGDYGENIYPYEEDKDEKSSIYESDFQIEPGFYATYESTLFEDQVPALEAPEDIGSTSESKDWEEVVVESMEQDRIPEVHVPPSSAVSGVKEWFGLGGEQAEEKAFESVIEPVQESSFRSRKIAVEDENDLEELNNGEPQTEHQQESESEIDSVPKTQSELASESEHIPKPQSTGWFGGGFTSYLGFGDEDTGLELIAEESNPPLQDFPNSISSDKEATVPCTEILTEKKDTITNDSLSLKPSWFDFGFAILGFAYAKEDKIMLDDRKNEEDGGADEHEHPLTSELDPEKEQEIETIKIIETEDQIDKKPVSEKTDESDTIPYLKKFLYNFDNPWNFQNIPKETELPFPKQILDQNNVIENEETGEFSIDNYPTDNTKVMIFKSSYSLSDMVSNIELPTRIHEEVYFEPSSSKDSDENSKPSVDTEGPALVEIDRSVENTLLNSQMVSTDNSLSSQNYISQKEDASEFQILKYLFQIDVYDFMNSAFSPIVILTERVVAALPEGMRPDSNLYGFPWELVICAAVVGFFAVLFFLWRSFRSVRSRLYVGREKKLALMLSGLIEEKSKLLEKFSLVQKEYEGYEVESSLKDASFEKEATEAQSLEATCEKLNRSNSELEDEILCLEKELKEEKSKHSEQDELMADISKRIQSLEDESKSLKSQVAEAKMTFKIFQMNEERLKIAIKDALNENSQLQESQKQLLQEAEVWKEQVSELNKQKVTFEDSKVHAEQVLNDKESHIKTLTERLLKMKDWAAMLGEDITDDDNLELEMNSESENGAYLDNPPKGALKKLIHAAKLNASLKTLEGERNQIYIQLSEVDKTKEELTEHIKNLQTEQASLQSENTHFENENQKLQQKLKVMTELYQENEMKLHRKLTVEENYRLEKEEKLSKVDEKISHATEELETYRKRAKDLEEELERTIHSYQGQIISHEKKAHDNWLAARNAERNLNDLRKENAHNRQKLTETELKFELLEKDPYALDVPNTAFGREHSPYGPSPLGWPSSETRAFLSPPTLLEGPLRLSPLLPGGGGRGSRGPGNPLDHQITNERGESSCDRLTDPHRAPSDTGSLSPPWDQDRRMMFPPPGQSYPDSALPPQRQDRFCSNSGRLSGPAELRSFNMPSLDKMDGSMPSEMESSRNDTKDDLGNLNVPDSSLPAENEATGPGFVPPPLAPIRGPLFPVDARGPFLRRGPPFPPPPPGAMFGASRDYFPPGDFPGPPPAPFAMRNVYPPRGFPPYLPPRPGFFPPPPHSEGRSEFPSGLIPPSNEPATEHPEPQQET [CTAGE5]	-0.0196	0.181
MEPPMEPSGGEQEPGAVRFLDLPWEDVLLPHVLNRVPLRQLLRLQRVSRAFRSLVQLHLAGLRRFDAAQVGPQIPRAALARLLRDAEGLQELALAPCHEWLSDEDLVPVLARNPQLRSVALGGCGQLSRRALGALAEGCPRLQRLSLAHCDWVDGLALRGLADRCPALEELDLTACRQLKDEAIVYLAQRRGAGLRSLSLAVNANVGDAAVQELARNCPELHHLDLTGCLRVGSDGVRTLAEYCPVLRSLRVRHCHHVAESSLSRLRKRGVDIDVEPPLHQALVLLQDMAGFAPFVNLQV [FBXL15]	0.189	-0.195
MVLKAFFPTCCVSTDSGLLVGRWVPEQSSAVVLAVLHFPFIPIQVKQLLAQVRQASQVGVAVLGTWCHCRQEPEESLGRFLESLGAVFPHEPWLRLCRERGGTFWSCEATHRQAPTAPGAPGEDQVMLIFYDQRQVLLSQLHLPTVLPDRQAGATTASTGGLAAVFDTVARSEVLFRSDRFDEGPVRLSHWQSEGVEASILAELARRASGPICLLLASLLSLVSAVSACRVFKLWPLSFLGSKLSTCEQLRHRLEHLTLIFSTRKAENPAQLMRKANTVASVLLDVALGLMLLSWLHGRSRIGHLADALVPVADHVAEELQHLLQWLMGAPAGLKMNRALDQVLGRFFLYHIHLWISYIHLMSPFVEHILWHVGLSACLGLTVALSLLSDIIALLTFHIYCFYVYGARLYCLKIHGLSSLWRLFRGKKWNVLRQRVDSCSYDLDQLFIGTLLFTILLFLLPTTALYYLVFTLLRLLVVAVQGLIHLLVDLINSLPLYSLGLRLCRPYRLADKPTALQPRGAHLPPPQLWLPPQALLGRPVPQAVPWGAHLPLEAERGQAGLRELLARLAPPHGHSQPSALPGWHQLSWRMSCALWTLLCAPEHGRPCYHTLGLEVIGSEQMWGWPARLAALHHWHCLPWDPLPTCCGHHGGEHSNPRCPEHCPMPTLCTQVQRVRPPQQPQVEGWSPWGLPSGSALAVGVEGPCQDEPPSPRHPLAPSAEQHPASGGLKQSLTPVPSGPGPSLPEPHGVYLRMFPGEVAL [PIGQ]	-0.0206	-0.119
MAATDLERFSNAEPEPRSLSLGGHVGFDSLPDQLVSKSVTQGFSFNILCVGETGIGKSTLMNTLFNTTFETEEASHHEACVRLRPQTYDLQESNVQLKLTIVDAVGFGDQINKDESYRPIVDYIDAQFENYLQEELKIRRSLFDYHDTRIHVCLYFITPTGHSLKSLDLVTMKKLDSKVNIIPIIAKADTISKSELHKFKIKIMGELVSNGVQIYQFPTDDEAVAEINAVMNAHLPFAVVGSTEEVKVGNKLVRARQYPWGVVQVENENHCDFVKLREMLIRVNMEDLREQTHSRHYELYRRCKLEEMGFQDSDGDSQPFSLQETYEAKRKEFLSELQRKEEEMRQMFVNKVKETELELKEKERELHEKFEHLKRVHQEEKRKVEEKRRELEEETNAFNRRKAAVEALQSQALHATSQQPLRKDKDKKNRSDIGAHQPGMSLSSSKVMMTKASVEPLNCSSWWPAIQCCSCLVRDATWREGFL [SEPT8]	-0.0316	-0.0125
MIMNKMKNFKRRFSLSVPRTETIEESLAEFTEQFNQLHNRRNENLQLGPLGRDPPQECSTFSPTDSGEEPGQLSPGVQFQRRQNQRRFSMEDVSKRLSLPMDIRLPQEFLQKLQMESPDLPKPLSRMSRRASLSDIGFGKLETYVKLDKLGEGTYATVFKGRSKLTENLVALKEIRLEHEEGAPCTAIREVSLLKNLKHANIVTLHDLIHTDRSLTLVFEYLDSDLKQYLDHCGNLMSMHNVKIFMFQLLRGLAYCHHRKILHRDLKPQNLLINERGELKLADFGLARAKSVPTKTYSNEVVTLWYRPPDVLLGSTEYSTPIDMWGVGCIHYEMATGRPLFPGSTVKEELHLIFRLLGTPTEETWPGVTAFSEFRTYSFPCYLPQPLINHAPRLDTDGIHLLSSLLLYESKSRMSAEAALSHSYFRSLGERVHQLEDTASIFSLKEIQLQKDPGYRGLAFQQPGRGKNRRQSIF [CDK18]	0.0482	-0.00432
MAESSSESDHFRCRDRLSPWAARSTHRGTRSLPTVEVTEKVNTITSTLQDTSRNLRQVDQMLGRYREYSNGQAGAIEHLKESLEQSIDQLRSQRLLRNSGGRSISVTSLSASDLDGGTGSELHHFPPTSPLKDYGDPQGIKRMRSRTGVRFVQETDDMTQLHGFHQSLRDLSSEQIRLGDDFNRELSRRSRSDAETKRALEELTEKLNEAQKQEVVSDRVERRLQELEREMRTERELVERRQDQLGLMSLQLQEALKKQEAKADEHEGAIKNKLRQTETEKNQLEQELELSRRLLNQSEGSRETLLHQVEELRTQLTKAEGDRKGLQHQVSQISKQQSNYQDEQGEDWRFRRGVEREKQDLEKQMSDLRVQLNFSAMASELEEVKRCMERKDKEKAHLASQVENLTRELENGEKQQLQMLDRLKEIQNHFDTCEAERKHADLQISELTRHAEDATKQAERYLSELQQSEALKEEAEKRREDLKLKAQESIRQWKLKHKKLERALEKQSETVDELTGKNNQILKEKDELKTQLYAALQQIENLRKELNDVLTKRALQEEELHSKEEKLRDIKSHQADLELEVKNSLDTIHRLESELKKQSKIQSQMKVEKAHLEEEIAELKKSQAQDKAKLLEMQESIKDLSAIRADLANKLAEEERAKKAVLKDLSDLTAQAKSRDEETATIITQLKLERDVHQRELKDLTSSLQSVKTKHEQNIQELMKHFKKEKSEAENHIRTLKAESLEEKNMAKIHRGQLEKLKSQCDRLTEELTQNENENKKLKLKYQCLKDQLEEREKHISIEEEHLRRMEEARLQLKDQLLCLETEQESILGVIGKEIDAACKTFSKDSVEKLKVFSSGPDIHYDPHRWLAESKTKLQWLCEELKERENREKNLRHQLMLCRQQLRNLTENKESELQCLFQQIERQEQLLDEIHREKRDLLEETQRKDEEMGSLQDRVIALETSTQVALDHLESVPEKLSLLEDFKDFRDSCSSSERTDGRYSKYRVRRNSLQHHQDDTKYRTKSFKGDRTFLEGSHTRGLDHSSSWQDHSRFLSSPRFSYVNSFTKRTVAPDSASNKEDATMNGTSSQPKKEEYGS [CEP128]	0.351	-0.182
MMAQSNMFTVADVLSQDELRKKLYQTFKDRGILDTLKTQLRNQLIHELMHPVLSGELQPRSISVEGSSLLIGASNSLVADHLQRCGYEYSLSVFFPESGLAKEKVFTMQDLLQLIKINPTSSLYKSLVSGSDKENQKGFLMHFLKELAEYHQAKESCNMETQTSSTFNRDSLAEKLQLIDDQFADAYPQRIKFESLEIKLNEYKREIEEQLRAEMCQKLKFFKDTEIAKIKMEAKKKYEKELTMFQNDFEKACQAKSEALVLREKSTLERIHKHQEIETKEIYAQRQLLLKDMDLLRGREAELKQRVEAFELNQKLQEEKHKSITEALRRQEQNIKSFEETYDRKLKNELLKYQLELKDDYIIRTNRLIEDERKNKEKAVHLQEELIAINSKKEELNQSVNRVKELELELESVKAQSLAITKQNHMLNEKVKEMSDYSLLKEEKLELLAQNKLLKQQLEESRNENLRLLNRLAQPAPELAVFQKELRKAEKAIVVEHEEFESCRQALHKQLQDEIEHSAQLKAQILGYKASVKSLTTQVADLKLQLKQTQTALENEVYCNPKQSVIDRSVNGLINGNVVPCNGEISGDFLNNPFKQENVLARMVASRITNYPTAWVEGSSPDSDLEFVANTKARVKELQQEAERLEKAFRSYHRRVIKNSAKSPLAAKSPPSLHLLEAFKNITSSSPERHIFGEDRVVSEQPQVGTLEERNDVVEALTGSAASRLRGGTSSRRLSSTPLPKAKRSLESEMYLEGLGRSHIASPSPCPDRMPLPSPTESRHSLSIPPVSSPPEQKVGLYRRQTELQDKSEFSDVDKLAFKDNEEFESSFESAGNMPRQLEMGGLSPAGDMSHVDAAAAAVPLSYQHPSVDQKQIEEQKEEEKIREQQVKERRQREERRQSNLQEVLERERRELEKLYQERKMIEESLKIKIKKELEMENELEMSNQEIKDKSAHSENPLEKYMKIIQQEQDQESADKSSKKMVQEGSLVDTLQSSDKVESLTGFSHEELDDSW [OFD1]	-0.146	0.252
STK25	0.291	-0.12
MSKLPRELTRDLERSLPAVASLGSSLSHSQSLSSHLLPPPEKRRAISDVRRTFCLFVTFDLLFISLLWIIELNTNTGIRKNLEQEIIQYNFKTSFFDIFVLAFFRFSGLLLGYAVLRLRHWWVIAVTTLVSSAFLIVKVILSELLSKGAFGYLLPIVSFVLAWLETWFLDFKVLPQEAEEERWYLAAQVAVARGPLLFSGALSEGQFYSPPESFAGSDNESDEEVAGKKSFSAQEREYIRQGKEATAVVDQILAQEENWKFEKNNEYGDTVYTIEVPFHGKTFILKTFLPCPAELVYQEVILQPERMVLWNKTVTACQILQRVEDNTLISYDVSAGAAGGVVSPRDFVNVRRIERRRDRYLSSGIATSHSAKPPTHKYVRGENGPGGFIVLKSASNPRVCTFVWILNTDLKGRLPRYLIHQSLAATMFEFAFHLRQRISELGARA [STARD3]	-0.0414	-0.178
